Laboratory results published in the supplement of paper PMC7125110.
± gives the standard error. For part of these data: Fewer inactive variants are shown than the library holds.

B1: glmS ribozyme (parent)
chain: AUAAAAGCGCCAGAACUACAGAAAUGUAGUUGACGAGGAGGAGGUUUAUCGAAUUUUCGGCGGAUGCCUCCAAA

Legend:
Conditions in all cases: with glucosamine-6-phosphate
glucosamine-6-phosphate [1] = variants of: B1; test: kcat; higher = faster cleavage; RNA array
How it was run: (§1)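 kobs was derived by fitting per-tile medians to one- or two-exponential decays after normalising signals to baseline and to non-cleaving reference variants. Those signals came from barcoded ribozyme variants transcribed in situ by E. coli RNA polymerase on sequenced MiSeq chips, followed through a hybridised Cy3 probe at 37 °C and imaged over ~14 h. Glucosamine-6-phosphate (40 μM to 10 mM) in HEPES/KCl/Mg(OAc)2 buffer was flowed in. Weighted Michaelis–Menten fits across concentrations then gave kcat and KM.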

glucosamine-6-phosphate [2] = variants of: B1; test: KM; higher = weaker cofactor use; RNA array
How it was run: as §1

glucosamine-6-phosphate [3] = variants of: B1; test: self-cleavage kobs at 40 uM GlcN6P; higher = faster cleavage; RNA array
How it was run: as §1

glucosamine-6-phosphate [4] = variants of: B1; test: self-cleavage kobs at 160 uM GlcN6P; higher = faster cleavage; RNA array
How it was run: as §1

glucosamine-6-phosphate [5] = variants of: B1; test: self-cleavage kobs at 640 uM GlcN6P; higher = faster cleavage; RNA array
How it was run: as §1

glucosamine-6-phosphate [6] = variants of: B1; test: self-cleavage kobs at 2500 uM GlcN6P; higher = faster cleavage; RNA array
How it was run: as §1

glucosamine-6-phosphate [7] = variants of: B1; test: self-cleavage kobs at 10000 uM GlcN6P; higher = faster cleavage; RNA array
How it was run: as §1

C16U G41U
kcat (glucosamine-6-phosphate [1]): 0.00145 ± 0.00031 s⁻¹ | KM (glucosamine-6-phosphate [2]): 599 ± 170 µM | self-cleavage kobs at 40 uM GlcN6P (glucosamine-6-phosphate [3]): 9.78e-05 ± 8.3e-06 s⁻¹ | self-cleavage kobs at 160 uM GlcN6P (glucosamine-6-phosphate [4]): 0.000229 ± 4.6e-05 s⁻¹ | self-cleavage kobs at 640 uM GlcN6P (glucosamine-6-phosphate [5]): 0.000727 ± 0.00014 s⁻¹ | self-cleavage kobs at 2500 uM GlcN6P (glucosamine-6-phosphate [6]): 0.00155 ± 0.00029 s⁻¹ | self-cleavage kobs at 10000 uM GlcN6P (glucosamine-6-phosphate [7]): 0.00126 ± 0.00027 s⁻¹

A42G U57C
kcat (glucosamine-6-phosphate [1]): 0.000292 ± 1.6e-05 s⁻¹ | KM (glucosamine-6-phosphate [2]): 2270 ± 300 µM | self-cleavage kobs at 640 uM GlcN6P (glucosamine-6-phosphate [5]): 6.98e-05 ± 2e-05 s⁻¹ | self-cleavage kobs at 2500 uM GlcN6P (glucosamine-6-phosphate [6]): 0.000145 ± 2.7e-05 s⁻¹ | self-cleavage kobs at 10000 uM GlcN6P (glucosamine-6-phosphate [7]): 0.000242 ± 3.4e-05 s⁻¹

C11A U55A
kcat (glucosamine-6-phosphate [1]): 0.000149 ± 2.2e-05 s⁻¹ | self-cleavage kobs at 640 uM GlcN6P (glucosamine-6-phosphate [5]): 0.000125 ± 4e-05 s⁻¹ | self-cleavage kobs at 2500 uM GlcN6P (glucosamine-6-phosphate [6]): 0.000203 ± 4.1e-05 s⁻¹ | self-cleavage kobs at 10000 uM GlcN6P (glucosamine-6-phosphate [7]): 0.000135 ± 1.4e-05 s⁻¹

A14U C16A
kcat (glucosamine-6-phosphate [1]): 0.000551 ± 6.3e-05 s⁻¹ | KM (glucosamine-6-phosphate [2]): 1840 ± 400 µM | self-cleavage kobs at 160 uM GlcN6P (glucosamine-6-phosphate [4]): 5.14e-05 ± 1.1e-05 s⁻¹ | self-cleavage kobs at 640 uM GlcN6P (glucosamine-6-phosphate [5]): 0.000126 ± 1.9e-05 s⁻¹ | self-cleavage kobs at 2500 uM GlcN6P (glucosamine-6-phosphate [6]): 0.000363 ± 4.8e-05 s⁻¹ | self-cleavage kobs at 10000 uM GlcN6P (glucosamine-6-phosphate [7]): 0.000451 ± 5.1e-05 s⁻¹

G13A C50G C61G G66U
kcat (glucosamine-6-phosphate [1]): 0.000136 ± 9.6e-06 s⁻¹ | KM (glucosamine-6-phosphate [2]): 17.2 ± 6.7 µM | self-cleavage kobs at 40 uM GlcN6P (glucosamine-6-phosphate [3]): 9.58e-05 ± 1.7e-05 s⁻¹ | self-cleavage kobs at 160 uM GlcN6P (glucosamine-6-phosphate [4]): 0.000112 ± 3.4e-05 s⁻¹ | self-cleavage kobs at 640 uM GlcN6P (glucosamine-6-phosphate [5]): 0.000165 ± 5.4e-05 s⁻¹ | self-cleavage kobs at 2500 uM GlcN6P (glucosamine-6-phosphate [6]): 0.000149 ± 3.8e-05 s⁻¹ | self-cleavage kobs at 10000 uM GlcN6P (glucosamine-6-phosphate [7]): 0.000126 ± 2.6e-05 s⁻¹

C50G G60U C61U U69A
kcat (glucosamine-6-phosphate [1]): 7.69e-05 ± 1.1e-05 s⁻¹ | self-cleavage kobs at 160 uM GlcN6P (glucosamine-6-phosphate [4]): 0.000102 ± 3.2e-05 s⁻¹ | self-cleavage kobs at 640 uM GlcN6P (glucosamine-6-phosphate [5]): 7.91e-05 ± 2.6e-05 s⁻¹ | self-cleavage kobs at 2500 uM GlcN6P (glucosamine-6-phosphate [6]): 7.43e-05 ± 1e-05 s⁻¹

C16U G59A
kcat (glucosamine-6-phosphate [1]): 6.33e-05 ± 4e-06 s⁻¹ | KM (glucosamine-6-phosphate [2]): 1180 ± 390 µM | self-cleavage kobs at 2500 uM GlcN6P (glucosamine-6-phosphate [6]): 4.86e-05 ± 1.2e-05 s⁻¹ | self-cleavage kobs at 10000 uM GlcN6P (glucosamine-6-phosphate [7]): 5.59e-05 ± 6.3e-06 s⁻¹

C16U G32C
kcat (glucosamine-6-phosphate [1]): 0.000168 ± 3e-05 s⁻¹ | KM (glucosamine-6-phosphate [2]): 3960 ± 1900 µM | self-cleavage kobs at 2500 uM GlcN6P (glucosamine-6-phosphate [6]): 7.33e-05 ± 1.4e-05 s⁻¹ | self-cleavage kobs at 10000 uM GlcN6P (glucosamine-6-phosphate [7]): 0.000119 ± 1.2e-05 s⁻¹

G40A
kcat (glucosamine-6-phosphate [1]): 0.0122 ± 0.00085 s⁻¹ | KM (glucosamine-6-phosphate [2]): 1310 ± 110 µM | self-cleavage kobs at 40 uM GlcN6P (glucosamine-6-phosphate [3]): 0.000363 ± 7.8e-06 s⁻¹ | self-cleavage kobs at 160 uM GlcN6P (glucosamine-6-phosphate [4]): 0.0012 ± 0.00012 s⁻¹ | self-cleavage kobs at 640 uM GlcN6P (glucosamine-6-phosphate [5]): 0.00372 ± 0.0003 s⁻¹ | self-cleavage kobs at 2500 uM GlcN6P (glucosamine-6-phosphate [6]): 0.00876 ± 0.0005 s⁻¹ | self-cleavage kobs at 10000 uM GlcN6P (glucosamine-6-phosphate [7]): 0.0103 ± 0.00063 s⁻¹

C61G C68U
kcat (glucosamine-6-phosphate [1]): < 1e-05 s⁻¹

A14C A42U
kcat (glucosamine-6-phosphate [1]): 3.4e-05 ± 1.6e-05 s⁻¹ | self-cleavage kobs at 10000 uM GlcN6P (glucosamine-6-phosphate [7]): 2.17e-05 ± 5.9e-06 s⁻¹

G41C U47C
kcat (glucosamine-6-phosphate [1]): 3.99e-05 ± 4.8e-06 s⁻¹ | self-cleavage kobs at 10000 uM GlcN6P (glucosamine-6-phosphate [7]): 3.66e-05 ± 1.1e-05 s⁻¹

G66U C67U
kcat (glucosamine-6-phosphate [1]): 0.000913 ± 3.1e-05 s⁻¹ | KM (glucosamine-6-phosphate [2]): 1130 ± 66 µM | self-cleavage kobs at 40 uM GlcN6P (glucosamine-6-phosphate [3]): 3.44e-05 ± 7.1e-06 s⁻¹ | self-cleavage kobs at 160 uM GlcN6P (glucosamine-6-phosphate [4]): 0.00011 ± 1.3e-05 s⁻¹ | self-cleavage kobs at 640 uM GlcN6P (glucosamine-6-phosphate [5]): 0.000333 ± 4.2e-05 s⁻¹ | self-cleavage kobs at 2500 uM GlcN6P (glucosamine-6-phosphate [6]): 0.000607 ± 8.4e-05 s⁻¹ | self-cleavage kobs at 10000 uM GlcN6P (glucosamine-6-phosphate [7]): 0.000831 ± 7.9e-05 s⁻¹

G13U G37U
kcat (glucosamine-6-phosphate [1]): < 1e-05 s⁻¹ | self-cleavage kobs at 640 uM GlcN6P (glucosamine-6-phosphate [5]): < 1e-05 s⁻¹ | self-cleavage kobs at 10000 uM GlcN6P (glucosamine-6-phosphate [7]): < 1e-05 s⁻¹

G40C C67A
kcat (glucosamine-6-phosphate [1]): 0.000136 ± 2.4e-05 s⁻¹ | self-cleavage kobs at 640 uM GlcN6P (glucosamine-6-phosphate [5]): 6.63e-05 ± 1.2e-05 s⁻¹ | self-cleavage kobs at 2500 uM GlcN6P (glucosamine-6-phosphate [6]): 0.000181 ± 2.9e-05 s⁻¹ | self-cleavage kobs at 10000 uM GlcN6P (glucosamine-6-phosphate [7]): 0.000119 ± 1.3e-05 s⁻¹

U69G C71U
kcat (glucosamine-6-phosphate [1]): 4.96e-05 ± 1.4e-05 s⁻¹ | self-cleavage kobs at 160 uM GlcN6P (glucosamine-6-phosphate [4]): 7.88e-05 ± 2.1e-05 s⁻¹ | self-cleavage kobs at 640 uM GlcN6P (glucosamine-6-phosphate [5]): 9.65e-05 ± 2.5e-05 s⁻¹ | self-cleavage kobs at 2500 uM GlcN6P (glucosamine-6-phosphate [6]): 6.25e-05 ± 1.2e-05 s⁻¹ | self-cleavage kobs at 10000 uM GlcN6P (glucosamine-6-phosphate [7]): 3.11e-05 ± 9.4e-06 s⁻¹
